{"source": "paper PMC2715080", "about": "(The Journal of Experimental Medicine, 2009)", "binders": {"B1": {"name": "NKp30-hFc (soluble recombinant NKp30 fused to mutated human IgG1) (Fc fusion, UniProt O14931 19-135, looked up)", "chain": "LWVSQPPEIRTLEGSSAFLPCSFNASQGRLAIGSVTWFRDEVVPGKEVRNGTPEFRGRLAPLASSRFLHDHQAELHIRDVRGHDASIYVCRVEVLGLGVGTGNGTRLVVEKEHPQLG"}}, "key": {"[1]": {"target": "T1, B7-H6-Fc (extracellular domain of B7-H6, aa 1-267, fused to effector-negative mouse IgG2a Fc) (human, UniProt Q68D85 25-267)", "T1 sequence (looked up)": "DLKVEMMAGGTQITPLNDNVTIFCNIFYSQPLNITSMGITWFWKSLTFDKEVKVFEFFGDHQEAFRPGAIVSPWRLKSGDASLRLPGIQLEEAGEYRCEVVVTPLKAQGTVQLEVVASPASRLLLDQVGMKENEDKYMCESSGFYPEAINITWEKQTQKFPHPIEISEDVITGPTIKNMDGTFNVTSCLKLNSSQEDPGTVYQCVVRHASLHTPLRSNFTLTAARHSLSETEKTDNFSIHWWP", "test": "SPR"}, "[2]": {"target": "T1, B7-H6-Fc (extracellular domain of …)", "test": "SPR", "remark": "listed apart in the source"}}, "note": "Read-outs that look alike come from different tables or passages of the source.", "data": [{"binder": "B1", "values": [{"measurement": "binding result", "setting": "[1]", "result": "binds"}, {"measurement": "binding result", "setting": "[2]", "result": "binds"}]}]}
